The conditions of the series: Mus musculus; pH 3.5; 23 °C; GdnHCl; Fluorescence; citrate-phosphate 100 mM; reversible: yes; whole UniProt chain shown.

Where “and” joins values, the source holds several entries; their conditions need not be identical. Identical values can stand only once.

B1: Neurotrophin-3 wild type, P20181 (protein)
chain: MSILFYVIFLAYLRGIQGNSMDQRSLPEDSLNSLIIKLIQADILKNKLSKQMVDVKENYQSTLPKAEAPREPEQGEATRSEFQPMIATDTELLRQQRRYNSPRVLLSDSTPLEPPPLYLMEDYVGNPVVANRTSPRRKRYAEHKSHRGEYSVCDSESLWVTDKSSAIDIRGHQVTVLGEIKTGNSPVKQYFYETRCKEARPVKNGCRGIDDKHWNSQCKTSQTYVRALTSENNKLVGWRWIRIDTSCVCALSRKIGRT
Regarding B1, the denaturant m value was 3.4 kcal/mol/M and 4 kcal/mol/M and 5.1 kcal/mol/M; the “denaturant midpoint (higher = more stable)” value is 1.4 M and 2.2 M and 2.1 M; the unfolding free energy was 12.7 kcal/mol and 17 kcal/mol and 19 kcal/mol.
